molecular target: HIV integrase fused to the VP16 activation domain (pEF-VP16, CHO cells); assay: mammalian two-hybrid luciferase reporter assay in CHO cells; conditions: 48 h after transfection; Firefly luciferase normalised to Renilla; parent: est. 1.4; read off a plot

Row | Substance | response
1 | GAL4 DNA binding domain (DBD)-LEDGF IBD fusion (pM1, CHO cells) V408A | 0.4
2 | GAL4 DNA binding domain (DBD)-LEDGF IBD fusion (pM1, CHO cells) F406A | 0.04
3 | GAL4 DNA binding domain (DBD)-LEDGF IBD fusion (pM1, CHO cells) L368A | 0.01
4 | GAL4 DNA binding domain (DBD)-LEDGF IBD fusion (pM1, CHO cells) L363A | 0.25
5 | GAL4 DNA binding domain (DBD)-LEDGF IBD fusion (pM1, CHO cells) K402A | 0.6
6 | GAL4 DNA binding domain (DBD)-LEDGF IBD fusion (pM1, CHO cells) K407A | 3.3
7 | GAL4 DNA binding domain (DBD)-LEDGF IBD fusion (pM1, CHO cells) R405A | 1.3
8 | GAL4 DNA binding domain (DBD)-LEDGF IBD fusion (pM1, CHO cells) D366A | 0.02
9 | GAL4 DNA binding domain (DBD)-LEDGF IBD fusion (pM1, CHO cells) K364A | 0.08
10 | GAL4 DNA binding domain (DBD)-LEDGF IBD fusion (pM1, CHO cells) I365A | 0.02

molecular target: GAL4 DNA binding domain (DBD)-LEDGF IBD fusion (pM1, CHO cells); assay: two-hybrid; mammalian three-hybrid competition in CHO cells: GAL4 DBD-IBD bait, HIV IN-VP16 prey and a free competitor from pEF-BOS-cyto; Firefly/Renilla luciferase; conditions: not given

Row | Substance | percent inhibition of the luciferase signal of HIV IN-VP16 with Gal4-IBD
11 | free HIV IN (competitor, pEF-BOS-cyto, CHO cells) (enzyme) | 90%

Source: publication PMC5715112
